# The DeepSol protein solubility set
# Experiment: soluble on expression in E. coli; label from the status in PepcDB or PDB records
row,Sequence,soluble on expression in E. coli
1,MKINNLVDLHCHILPAIDDGSPSLEASLELARQAVADGIRYILATPHHMDRHYLNHAGDVVAAVEAFQAELDVNDIPLTIFPGQEVHLNGQLMEKVDDLLSIDTGRHYLLLELPHEMVPSYLDEMIFQLSCEGITPVIAHPERNAQIIAEPQRLYKLAEDGVLAQVTATSLVGTFGEQVQRTAKEFVKCGLVQVVASDAHTLKNRGFAMTKAYQVLNEMDSKYPERFATNARDLLNGEQIEMGQIEIPRKQRKHWLF,not soluble
2,MQDRNFDDIAEKFSRNIYGTTKGQLRQAILWQDLDRVLAEMGPQKLRVLDAGGGEGQTAIKMAERGHQVILCDLSAQMIDRAKQAAEAKGVSDNMQFIHCAAQDVASHLETPVDLILFHAVLEWVADPRSVLQTLWSVLRPGGVLSLMFYNAHGLLMHNMVAGNFDYVQAGMPKKKKRTLSPDYPRDPAQVYLWLEEAGWQIMGKTGVRVFHDYLREKYQQRDCYEALLELETRYCRQEPYITLGRYIHVTARKPQSKDKV,not soluble
3,MAELSDQEMLRYNRQIILRGFDFDGQEALKDSRVLIVGLGGLGCAASQYLASAGVGNLTLLDFDTVSLSNLQRQTLHSDATVGQPKVESARDALTRINPHIAITPVNALLDDAELAALIAEHDLVLDCTDNVAVRNQLNAGCFAAKVPLVSGAAIRMEGQITVFTYQDGEPCYRCLSRLFGENALTCVEAGVMAPLIGVIGSLQAMEAIKMLAGYGKPASGKIVMYDAMTCQFREMKLMRNPGCEVCGQ,soluble
4,MSEREHWQRVYESKPSDAVSWFQAEATLSLDLIRRIGAPREAAIIDVGGGASTLVDGLLAEGFGDLTVLDLSDAALRVARNRLGARGEEVRWIAGDITGVDLPEATYDVWHDRAVFHFLTTAEARRAYVRQVMKAVRHGGHVIVATFAADGPTECSGLPVMRYDADELHAEFGSAFQLTEHRDEHHVTPAGRVQHFVYCHCLKRLLEHHHHHH,not soluble
5,MRREILVAAAILLDSRGRVLLVGNDWGRRGRVRYTLPGGTVEPGETAVEALVREVREETGLRVRSVEHLAYVIQVEDRRKNERTLAMAFRATYEGLLNPRDPDGHIVEARFFTLEEVEERLKGHLPLLEPLRAYLRGERGRFYAYAGWHAPGVVV,soluble
6,MVKRANTFAMRPLTADDEQVLRDLLDASAALWNEINYQRLMRYNDKDGFEDEDVWDADTGALEGKYKAVLGASTAQTVRRANTEAWRSFFRLKKQFHDESNTSVTEHPEPPGFRGNKDDGRVLKGVVRKDAYSVEWGDRSRLEMVVGEQLRDRHNSPKSRLRLEIVGDPNWSDYEDQGRLELWYDETDCTFRASQPVTVSDDARATPLANEKAALDIGANNLVACTTTTGQQYLYEGRELFQRFRETTREIARLQSKLPEGRYSSKRIRRLYRKRTRRRDHAQETLCRDLLEQLYGEGVDTVYIGGLTDVLETHWSAETNAKTHNFWAFKQFTERLAWTADEYGISVEVRSEAWTSQECPQCGSTDRTTRQQDTLTCPCGFEGHADVTASETFLERHTEKAVRPMARPVRFEWDDHEWSESPRSPARESPKEQRTDPSTVPRDGNVVSGDSLEHHHHHH,not soluble
7,MGSDKIHHHHHHMIKHHPHAELLQAHAQGELPLSMSMAVAAHCALCQECQNQIAKLTEQAAKLAFVSSSDDPVQHNASNEIDVVDNDPWQQMLSNIMALPESTMSEPYIESSVTVSHRNIRYQIPRVFRQHIALPWQQIGKVSRMRFDIDEKNTRASLLYIEALGEIPQHTHKGFELTLLLSGEFSDSTGNYVVGDFIILDGNTQHSPTTQTGCLCYTVLDAPLYFTKGISKLLNPIGELIY,not soluble
8,MSLNQPLLSVNNLTHLYAPGKGFSDVSFDLWPGEVLGIVGESGSGKTTLLKSISARLTPQQGEIHYENRSLYAMSEADRRRLLRTEWGVVHQHPLDGLRRQVSAGGNIGERLMATGARHYGDIRATAQKWLEEVEIPANRIDDLPTTFSGGMQQRLQIARNLVTHPKLVFMDEPTGGLDVSVQARLLDLLRGLVVELNLAVVIVTHDLGVARLLADRLLVMKQGQVVESGLTDRVLDDPHHPYTQLLVSSVLEGHHHHHH,soluble
9,MGEVVKLVTFLGLGKYEESEIKINGNLLDGCVKNDDSQDIFCVRQSIFPLALIEYLNHIGKQVETIFFLTKTVKESKTWDECRRFLRSNIKDFEIPERRIFK,not soluble
10,MQTPHILIVEDELVTRNTLKSIFEAEGYDVFEATDGAEMHQILSEYDINLVIMDINLPGKNGLLLARELREQANVALMFLTGRDNEVDKILGLEIGADDYITKPFNPRELTIRARNLLSRTMQ,soluble
